This sample holds only a part of the variants without activity.
Columns and labels:
[1] = test system: biotinyl-Ile-oxazolone; experiment: self-aminoacylation, catalytic enhancement (BIO) (fold over background); higher = more active; k-Seq, kA / k0A0; sequences stand for … in GGGAAUGGAUCCACAUCUACGAAUUC…UUCACUGCAGACUUGACGAAGCUG
Procedure, shortened: (§1)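 Working in 50 μL HEPES/NaCl/KCl/MgCl2/CaCl2 buffer with 5% acetonitrile at pH 6.9–7.0, mutagenized RNA pools (0.43 μM; 21-nt variable region) were reacted with 2–1250 μM of each biotinyl-aminoacyl-oxazolone for 90 minutes at room temperature. Streptavidin capture followed, with quantification by triplicate qPCR and Illumina sequencing. Catalytic enhancement is reported as median kA over the uncatalyzed rate, the low-activity peak of a bimodal Gaussian fit to the data.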

[2] = test system: biotinyl-Phe-oxazolone; experiment: self-aminoacylation, catalytic enhancement (BFO) (fold over background); higher = more active; k-Seq, kA / k0A0; sequences stand for … in GGGAAUGGAUCCACAUCUACGAAUUC…UUCACUGCAGACUUGACGAAGCUG
Procedure, shortened: as §1

[3] = test system: biotinyl-Leu-oxazolone; experiment: self-aminoacylation, catalytic enhancement (BLO) (fold over background); higher = more active; k-Seq, kA / k0A0; sequences stand for … in GGGAAUGGAUCCACAUCUACGAAUUC…UUCACUGCAGACUUGACGAAGCUG
Procedure, shortened: as §1

[4] = test system: biotinyl-Met-oxazolone; experiment: self-aminoacylation, catalytic enhancement (BMO) (fold over background); higher = more active; k-Seq, kA / k0A0; sequences stand for … in GGGAAUGGAUCCACAUCUACGAAUUC…UUCACUGCAGACUUGACGAAGCUG
Procedure, shortened: as §1

[5] = test system: biotinyl-Trp-oxazolone; experiment: self-aminoacylation, catalytic enhancement (BWO) (fold over background); higher = more active; k-Seq, kA / k0A0; sequences stand for … in GGGAAUGGAUCCACAUCUACGAAUUC…UUCACUGCAGACUUGACGAAGCUG
Procedure, shortened: as §1

[6] = test system: biotinyl-Val-oxazolone; experiment: self-aminoacylation, catalytic enhancement (BVO) (fold over background); higher = more active; k-Seq, kA / k0A0; sequences stand for … in GGGAAUGGAUCCACAUCUACGAAUUC…UUCACUGCAGACUUGACGAAGCUG
Procedure, shortened: as §1

CCCCACAUCAAGCAAUCGGUC [Fam1B.1 aminoacylation ribozyme variant]
self-aminoacylation [1]: 1.67
self-aminoacylation [2]: 3.1
self-aminoacylation [3]: 1.63
self-aminoacylation [4]: 1.22
self-aminoacylation [5]: 2.47
self-aminoacylation [6]: 1.5

CCCCACUUCAAGAAAUCGGUC [Fam1B.1 aminoacylation ribozyme variant]
self-aminoacylation [1]: 1.36
self-aminoacylation [2]: 11.6
self-aminoacylation [3]: 1.81
self-aminoacylation [4]: 1.17
self-aminoacylation [5]: 9.76
self-aminoacylation [6]: 1.42

CCCCACUUCAAGCAAACGGUC [Fam1B.1 aminoacylation ribozyme variant]
self-aminoacylation [1]: 1.33
self-aminoacylation [2]: 2.34
self-aminoacylation [3]: 1.03
self-aminoacylation [4]: 1.36
self-aminoacylation [5]: 1.67
self-aminoacylation [6]: 1.41

CCCCACUUCAAGCAACCGGUC [Fam1B.1 aminoacylation ribozyme variant]
self-aminoacylation [1]: 1.99
self-aminoacylation [2]: 3.09
self-aminoacylation [3]: 2.05
self-aminoacylation [4]: 1.82
self-aminoacylation [5]: 2.18
self-aminoacylation [6]: 2.15

CCCCACUUCAAGCAAGCGGUC [Fam1B.1 aminoacylation ribozyme variant]
self-aminoacylation [1]: 2.15
self-aminoacylation [2]: 9.34
self-aminoacylation [3]: 2.61
self-aminoacylation [4]: 2.33
self-aminoacylation [5]: 5
self-aminoacylation [6]: 2.38

CCCCACUUCAAGCAAUCAGUC [Fam1B.1 aminoacylation ribozyme variant]
self-aminoacylation [1]: 0.981
self-aminoacylation [2]: 19.8
self-aminoacylation [3]: 1.13
self-aminoacylation [4]: 0.987
self-aminoacylation [5]: 6.51
self-aminoacylation [6]: 1.14

CCCCACUUCAAGCAAUCGCUC [Fam1B.1 aminoacylation ribozyme variant]
self-aminoacylation [1]: 2.08
self-aminoacylation [2]: 8.76
self-aminoacylation [3]: 2.99
self-aminoacylation [4]: 2.93
self-aminoacylation [5]: 4.28
self-aminoacylation [6]: 2.55

CCCCACUUCAAGCAUUCGGUC [Fam1B.1 aminoacylation ribozyme variant]
self-aminoacylation [1]: 2.65
self-aminoacylation [2]: 10.9
self-aminoacylation [3]: 2.48
self-aminoacylation [4]: 2.61
self-aminoacylation [5]: 5.46
self-aminoacylation [6]: 3.06

CCCCACUUCAAGCUAUCGGUC [Fam1B.1 aminoacylation ribozyme variant]
self-aminoacylation [1]: 1.42
self-aminoacylation [2]: 2.16
self-aminoacylation [3]: 1.12
self-aminoacylation [4]: 1.05
self-aminoacylation [5]: 2.01
self-aminoacylation [6]: 1.71

CCCCACUUCAAGGAAUCGGUC [Fam1B.1 aminoacylation ribozyme variant]
self-aminoacylation [1]: 2.4
self-aminoacylation [2]: 11.3
self-aminoacylation [3]: 2.62
self-aminoacylation [4]: 2.33
self-aminoacylation [5]: 13
self-aminoacylation [6]: 2.15

CCCCACUUCCAGCAAUCGGUC [Fam1B.1 aminoacylation ribozyme variant]
self-aminoacylation [1]: 2.18
self-aminoacylation [2]: 1.79
self-aminoacylation [3]: 2.35
self-aminoacylation [4]: 1.78
self-aminoacylation [5]: 2.16
self-aminoacylation [6]: 2.48

CCCCCCUUCAAGCAAUCGGUC [Fam1B.1 aminoacylation ribozyme variant]
self-aminoacylation [1]: 1.88
self-aminoacylation [2]: 80.1
self-aminoacylation [3]: 3.18
self-aminoacylation [4]: 2
self-aminoacylation [5]: 44.8
self-aminoacylation [6]: 2.67

CCGCACUUCAAGCAAACGGUC [Fam1B.1 aminoacylation ribozyme variant]
self-aminoacylation [1]: 0.937
self-aminoacylation [2]: 0.946
self-aminoacylation [3]: 0.684
self-aminoacylation [4]: 0.724
self-aminoacylation [5]: 1.04
self-aminoacylation [6]: 1.3

CCGCACUUCAAGCAACCGGUC [Fam1B.1 aminoacylation ribozyme variant]
self-aminoacylation [1]: 1.47
self-aminoacylation [2]: 1.29
self-aminoacylation [3]: 1.1
self-aminoacylation [4]: 1.47
self-aminoacylation [5]: 1.56
self-aminoacylation [6]: 1.54

CCGCACUUCAAGCAAGCGGUC [Fam1B.1 aminoacylation ribozyme variant]
self-aminoacylation [1]: 1.65
self-aminoacylation [2]: 1.43
self-aminoacylation [3]: 1.31
self-aminoacylation [4]: 1.43
self-aminoacylation [5]: 2
self-aminoacylation [6]: 1.67

CCGCACUUCAAGCAAUCGCUC [Fam1B.1 aminoacylation ribozyme variant]
self-aminoacylation [1]: 1.93
self-aminoacylation [2]: 6.76
self-aminoacylation [3]: 2.14
self-aminoacylation [4]: 1.8
self-aminoacylation [5]: 2.73
self-aminoacylation [6]: 2.73

CCGCACUUCAAGCAAUCGGGC [Fam1B.1 aminoacylation ribozyme variant]
self-aminoacylation [1]: 1.92
self-aminoacylation [2]: 2.26
self-aminoacylation [3]: 1.69
self-aminoacylation [4]: 1.35
self-aminoacylation [5]: 2.11
self-aminoacylation [6]: 2.52

CCGCACUUCAAGCUAUCGGUC [Fam1B.1 aminoacylation ribozyme variant]
self-aminoacylation [1]: 1.15
self-aminoacylation [2]: 0.936
self-aminoacylation [3]: 0.84
self-aminoacylation [4]: 0.919
self-aminoacylation [5]: 1.19
self-aminoacylation [6]: 1.42

CCGUUUGCUAAUAGUCGCAAG [Fam3.1 aminoacylation ribozyme variant]
self-aminoacylation [1]: 1.22
self-aminoacylation [2]: 1.94
self-aminoacylation [3]: 1.02
self-aminoacylation [4]: 0.83
self-aminoacylation [5]: 1.1
self-aminoacylation [6]: 0.972

CCUACCCUGGUCAUCGAGUGA [Fam2.1 aminoacylation ribozyme variant]
self-aminoacylation [1]: 3.88
self-aminoacylation [2]: 49.8
self-aminoacylation [3]: 7.58
self-aminoacylation [4]: 6.64
self-aminoacylation [5]: 9.17
self-aminoacylation [6]: 4.14

CCUCACCUAGGUCAUCGGGUG [Fam2.2 aminoacylation ribozyme variant]
self-aminoacylation [1]: 3.22
self-aminoacylation [2]: 16.2
self-aminoacylation [3]: 4.79
self-aminoacylation [4]: 3.92
self-aminoacylation [5]: 5.46
self-aminoacylation [6]: 5.35

CCUCACUUCAACCAAUCGGUC [Fam1B.1 aminoacylation ribozyme variant]
self-aminoacylation [1]: 1.28
self-aminoacylation [2]: 57.5
self-aminoacylation [3]: 1.84
self-aminoacylation [4]: 1.35
self-aminoacylation [5]: 27.6
self-aminoacylation [6]: 1.27

CCUCACUUCAAGCAAUAGGUC [Fam1B.1 aminoacylation ribozyme variant]
self-aminoacylation [1]: 0.573
self-aminoacylation [2]: 1.26
self-aminoacylation [3]: 0.553
self-aminoacylation [4]: 0.468
self-aminoacylation [5]: 0.622
self-aminoacylation [6]: 0.592

Source: the supplement of paper PMC9233669
